Source: patent US20210253725A1 (BIONTECH, published 2021)

T1: CD134 expressed on the cell surface of HT1080_OX40 cells (human, UniProt P43489 29-277)
T1 sequence (looked up): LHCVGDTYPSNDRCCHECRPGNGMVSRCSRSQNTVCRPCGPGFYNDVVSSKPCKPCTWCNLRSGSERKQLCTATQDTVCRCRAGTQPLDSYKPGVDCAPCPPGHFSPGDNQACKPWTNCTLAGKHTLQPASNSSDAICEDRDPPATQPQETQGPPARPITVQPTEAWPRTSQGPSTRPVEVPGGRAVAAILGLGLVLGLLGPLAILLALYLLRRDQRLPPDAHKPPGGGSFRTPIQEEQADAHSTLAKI

T2: CD134 protein (His-tagged, Sino Biological Inc. 10481-H08H) (human, UniProt P43489 29-216)
T2 construct: bought protein coated on ELISA plates; also called OX40; TNFRSF4; not shown: His tag
T2 sequence (looked up): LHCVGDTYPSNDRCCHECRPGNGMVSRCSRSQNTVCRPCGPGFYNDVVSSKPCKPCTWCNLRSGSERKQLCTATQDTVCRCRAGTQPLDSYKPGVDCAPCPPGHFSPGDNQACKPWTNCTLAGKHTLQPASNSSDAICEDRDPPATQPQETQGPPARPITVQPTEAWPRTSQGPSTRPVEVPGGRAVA

B1: P018.S.12.A.D06 (antibody, V domains shown)
VH: QSVEESGGRLVTPGTPLTLTCTVSGFSLSSYDMSWVRQAPGKGLEWIGIIYVSGTTDYASWAKGRFTISKTSTTVDLKMTSLTTEDTATYFCARDIYVDEIGCFDLWGQGTLVTVSS
VL: DILMTQTPASVEVAVGGTVTIKCQASQNIRTYLAWYQQKPGQPPKLLIYRASTLESGVPSRFKGSGSGIEFSLTISDLESADAATYYCQNYDGGSSTGFGGGTEVVVK
notes: V regions on human Ig constant parts; also called AB134_71
B2: P018.S.12.A.F05 (antibody, V domains shown)
VH: QSLEESGGGLVQPGGSLKLSCKASGIDFSSYGVSWVRQAPGKGLEWIAYTYPDYGSTDYASWVNGRFTISLDNAQNTVFLQMTSLTAADTATYFCASSSNGWGGGFYFDLWGPGTLVTVSS
VL: ALVMTQTPSPVSAAVGGTVTINCQASEDIYSNLAWFQQKPGQPPKLLIYGASTLASGVPSRFSGSGSGTEFTLTINDLKSDDAATYYCLGVYTYITTDPNAFGGGTEVVVK
notes: V regions on human Ig constant parts; also called AB134_81
B3: P018.S.11.A.A06 (antibody, V domains shown)
VH: QEQLVESGGGLVQPEGSLTLTCKASGFSFSSANCMHWVRQAPEKGLQWIGCVCIGDGTTYYASWVNGRFSISATSSTTVTIQMTSLTAADTATYFCARDLGLWGPGTLVTVSS
VL: AIVMTQTPSSKSVPVGDTVTINCQASESVDKYTQCSWYQQKPGQPPKLLIYYASTLASGVPSRFKGSGSGTQFTLTISDVVSDDAATYYCSGYKGGSADMIAFGGGTELVVT
notes: V regions on human Ig constant parts; also called AB134_23
B4: P018.S.12.A.F03 (antibody, V domains shown)
VH: QSLEESGGRLVAPGTPLTLTCTVSGIDLSRYAMGWVRQAPGKGLEYIGIIDDNDITYFATWAKGRFTISKTSTTLGLKITSPTTEDTATYFCARTADYADYSFGLWGPGTLVTVSS
VL: DVVMTQTPTSVSEPVGGTVTIKCQASENIGNYLAWYQQRPGQRPKLLIYAASNLASGVPSRFKGSGSGTEYALTISDLESDDAATYYCQCTYDDSEYFVFGGGTEVVVK
notes: V regions on human Ig constant parts; also called AB134_79
B5: P018.S.12.A.D05 (antibody, V domains shown)
VH: QEQLKESGGGVVTPGGTLTLTCTASAFSLNHYNIQWVRQAPGKGLEWIGWILTDGTEYYANWAKGRFTISKTSTTVDLKIASPTTEDTATYFCAREGDWGVDSLWGPGTLVTVSS
VL: ALVMTQTPSPVSAAVGGTVTISCQSSQSVDNNDFLSWYQQKPGQPPKLLIYLASKLASGVPSRFSGSGSGTQFTLTISGVQSDDAATYYCKGLYFDSGWYAAFGGGTEVVVE
notes: V regions on human Ig constant parts; also called AB134_70
B6: P018.S.12.A.B05 (antibody, V domains shown)
VH: QQQLVESGGGLVKPGASLTLTCKASGFFFSGSYYMCWVRQAPGKGLEWIACIYTGSDDDTNYASWAKGRFTISKTSSTTVTLQMTSLTAADTATYFCARRNYDTDWGGDLWGPGTLVTVSS
VL: AVVLTQTPASVEAAVGGTVTIKCQASQSIGSSLAWYQQKPGQRPKLLIYYASNLASGVSSRFKGSGSGTQFTLTISDLESADAATYYCQCTYTSSDYLDAFGGGTEVVVK
notes: V regions on human Ig constant parts; also called AB134_59
B7: P018.S.11.A.G03 (antibody, V domains shown)
VH: QSLEESGGRLVTPGTPLTLTCTASGFSLTNYAMNWVRQAPGKGLEWIGFINYDGNTYYANWAKGRFTISRTSTTVDLKITSPTTEDTATYFCARGGDGYTHIPDTFDPWGPGTLVTVSS
VL: AFEMTQTPSSVSVAVGGTVTIKCQASQSIYSYLSWYQQKPGQPPKLLIYYASTLASGVPSRFVGSGSGTQFTLTISGVESADAATYYCQQGYSYSNIDNVFGGGTEMVVK
notes: V regions on human Ig constant parts; also called AB134_43
B8: P018.S.12.A.C01 (antibody, V domains shown)
VH: QEQLKESGGGLVTPGGTLTLTCTASGFTFSSHAMGWVRQAPGKGLEWIGKIYDDGTTFYANWAKGRFTISRTSTTVDLKMTSLTTEDTATYFCLRGYNSGFNFWGQGTLVTVSS
VL: AQVLTQTPASVSAAVGGTVTISCQSSESVYNNNFLAWYQQKPGQPPKLLIYLASTLASGVPSRFSGSGSGTEFTLTISDLDSDDAATYYCAGGYDDNVYGFGGGTEVVVK
notes: V regions on human Ig constant parts; also called AB134_61
B9: P018.S.02.A.H03 (antibody, V domains shown)
VH: QSLEESGGRLVTPGGSLTLTCTVSGIDLSSYGMGWVRQAPGKGLEWIGTISYGGSTFYANWVKGRFTISKTSTTVDLKVTSLTTEDAATYFCAREVPYWSLWGQGTLVTVSS
VL: AYDMTQTPASVAAAVGGTVTIKCQASQSIGSDLSWYQQKRGQPPKLLIYDASTLASGVPSRFKGSGSGTEFTLTISDVQSADAATVYCQQDYSYRNVDNTFGGGTEVVVK
notes: V regions on human Ig constant parts; also called AB134_3
B10: P018.S.11.A.D03 (antibody, V domains shown)
VH: QEQLKETGGGLVQPGGSLTLSCKASGFDFSSGYMSWVRQAPGKGLEWIGYIDPVFGSTYYASWVNGRFAISSHNAQNTLYLQLNSLTAADTATYFCARDLRAFYSGWGGINLWGPGTLVTVSS
VL: AAVLTQTPSPVSAAVGGTVTIKCQSSQIVVNNNFLSWYQQKPGQPPKLLIYDASNLASGVPDRFSGSGSGTQFTLTISGVQSDDAATYYCLGGYDDDAENAFGGGTEVVVQ
notes: V regions on human Ig constant parts; also called AB134_30
B11: P018.S.05.A.F05 (as anti-CD134 antibody) (antibody, V domains shown)
VH: QSVEESGGRLVTPGTPLTLTCTVSGFSLSNYYMTWVRQAPGKGLEYIGIIGSGVSTYYANWAKGRFTISKASSTTVDLKMTSPTTEDTATYFCARDMYVGNWGDWGLWGQGTLVTVSS
VL: AYDMTQTPASVEVAVGGTVTIKCQASQSISNNLNWYQQKPGQPPKLLIYSVSTLASGVPSRFKGSGSGTDYTLTISGVESVDAATYYCQQDYRIGDLDSAFGGGTEVVVK
notes: V regions on human Ig constant parts; also called AB134_16
B12: P018.S.08.A.F03 (antibody, V domains shown)
VH: QSVEESGGRLVTPGTPLTLTCTASGFTISSYHMIWVRQAPGEGLEWIGDIYGGTATTDYASWAKGRFTISKTSTTVDLKMTSLTTEDTATYFCARARYSGGSYANYVFNLWGQGTLVTVSS
VL: DIVMTQTPASVEAAVGGTVTIKCQASQSISSYLAWYQQKPGQPPKLLIYRTSTLESGVPSRFKGSGSGTEFTLTISDLESADAATYYCQGYDWSSSNRYDNTFGGGTEVVVK
B13: P018.S.13.A.C02 (antibody, V domains shown)
VH: QSVEESGGRLVTPGTPLTLTCTVSGFSLSSYAMSWVRQAPGKGLEWIGIISTSGITYYASWAKGRFTISKTSTMVDLKITSPTTEDTATYFCARLNGFDDYVRYFDFWGLGTLVTVSS
VL: AIELTQTPSSVSAAVGGTVTINCQASESIASNLAWYQQKPGQPPKLLIYAASYLASGVPSRFKGSGSGTEYTLTISGVQSADAATYYCQSAFYVSSSDNAFGGGTEVVVK
B14: P018.S.14.A.G03 (antibody, V domains shown)
VH: QSLEESGGRLVTPGTPLTLTCTVSGIDLSSYHMCWVRQAPGKGLEYIGYIAYGGNTYYANWAKGRFTISKTSTTVDLRITSPTTEDTATYFCARGYSEDSYWGLWGPGTLVTVSS
VL: AYDMTQTPASVEAAVGGTVTIKCQASQNIENYLAWYQQKPGQPPKLLIYDTSKLTSGVPSRFSGSGSGTDFTLTISGVQSDDAATYYCQQDYGIIFVDNIFGGGTEVVVK
B15: P018.S.13.A.A05 (antibody, V domains shown)
VH: QSLEESGGRLVTPGTPLTLTCTASGFSLSRYDMSWVRQAPGKGLEYIGVISSSGGTNYANWAKGRFTISKTSTTVDLKITSPTTEDTATYFCAREGDYWDFNLWGPGTLVTVSS
VL: AQVLTQTPSSVSAAVGGTVTINCQASQSISNLLAWYQQKPGQPPKLLIYGASTLASGVPSRFSGSGSGTEFTLTISDLESDDAATYYCAGGFPGLDTVAAFGGGTEAVVT

Target: T1, CD134 expressed on the cell surface of …
Experiment: cell-based or functional assay
For Functional assay Cross-linked by F(ab′)2 fragment IL-8 in this document: test concentration or dose not given here.
For Functional assay IL-8 in this document: test concentration or dose not given here.

Binder	EC 50 (IL-8 release, cross-linked)
B1	2.77 µg/mL
B2	0.733 µg/mL
B3	2.09 µg/mL
B4	1.63 µg/mL
B5	2.4 µg/mL
B6	0.102 µg/mL
B7	0.894 µg/mL
B8	0.431 µg/mL
B9	0.215 µg/mL
B10	0.176 µg/mL
B11	7.12 µg/mL

Target: T1, CD134 expressed on the cell surface of …
Experiment: HT1080_OX40 cells, imaging; also: test concentration or dose not given here

Binder	Cellular binding assay [RFU]
B1	180 RFU
B2	511 RFU
B3	537 RFU
B4	485 RFU
B5	451 RFU
B6	536 RFU
B7	450 RFU
B8	496 RFU
B9	198 RFU
B10	482 RFU
B11	392 RFU

Target: T2, CD134 protein (His-tagged, Sino …)
Experiment: ELISA, coated His-tagged CD134; also: test concentration or dose not given here

Binder	ELISA [abs. corr.]
B1	0.865 abs. corr.
B2	2.12 abs. corr.
B3	1.84 abs. corr.
B4	2.45 abs. corr.
B5	2.13 abs. corr.
B6	2.1 abs. corr.
B7	2.11 abs. corr.
B8	2.49 abs. corr.
B9	0.468 abs. corr.
B10	1.99 abs. corr.
B11	2.41 abs. corr.

Target: human 4-1BB (CD137) (human, UniProt Q07011 24-255)
Sequence (Q07011 24-255): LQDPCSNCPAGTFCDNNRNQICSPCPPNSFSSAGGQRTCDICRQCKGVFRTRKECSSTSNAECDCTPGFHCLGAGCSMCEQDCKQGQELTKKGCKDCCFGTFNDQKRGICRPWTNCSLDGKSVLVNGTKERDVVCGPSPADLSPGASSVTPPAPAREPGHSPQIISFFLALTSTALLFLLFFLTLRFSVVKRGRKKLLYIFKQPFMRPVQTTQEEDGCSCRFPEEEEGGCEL
Experiment: cell-based or functional assay

Binder	EC 50 [ng/mL] of agonistic function (IL-8 release from CD137-overexpressing HT1080 cells, antibody cross-linked by F(ab')2 goat anti-human IgG)
B12	2710 ng/mL
B13	3500 ng/mL
B14	3500 ng/mL
B15	3720 ng/mL

Target: T1, CD134 expressed on the cell surface of …
Experiment: cell-based or functional assay
Remark: another data set of the same source

Binder	Functional assay Cross-linked by F(ab′)2 fragment IL-8	Functional assay IL-8
B1	2.17 abs. corr.	0.832 abs. corr.
B2	2.17 abs. corr.	0.341 abs. corr.
B3	2.16 abs. corr.	0.732 abs. corr.
B4	2.15 abs. corr.	0.527 abs. corr.
B5	2.15 abs. corr.	-0.007 abs. corr.
B6	2.15 abs. corr.	0.96 abs. corr.
B7	2.1 abs. corr.	1.57 abs. corr.
B8	2.06 abs. corr.	-0.026 abs. corr.
B9	1.95 abs. corr.	2.56 abs. corr.
B10	1.86 abs. corr.	2.24 abs. corr.
B11	1.71 abs. corr.	0.187 abs. corr.
